Results as given in patent US20070054846A1, “Bcl-w structure and uses therefor” (priority 2002, published 2007).
Numbering of substitutions follows the chain as printed. Names and notes keep the numbering of the source.

Experiments:
Bim-BH3 peptide = molecular target: T1, Bim-BH3 peptide (mouse); experiment: NMR, 15N-NOESY-HSQC chemical shift changes
T1 peptide: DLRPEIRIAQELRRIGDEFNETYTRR

BimLΔC27-L94A [1] = molecular target: T2, BimLΔC27-L94A (mouse, UniProt O54918-2 1-113); experiment: SPR (BIAcore 2000)
T2 construct: also called Bim containing the L94 mutation; L94A mutant
T2 sequence: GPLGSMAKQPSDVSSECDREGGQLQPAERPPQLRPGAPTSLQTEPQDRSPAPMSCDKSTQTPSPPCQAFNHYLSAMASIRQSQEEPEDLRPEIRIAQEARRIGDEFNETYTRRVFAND
Procedure: (§1) Similar results were obtained when a corresponding mutation (L138A) was introduced into another BH3-only protein, Bmf (not shown).
(§2) Analysis of protein interactions by surface plasmon resonance was carried out on a BIAcore 2000 biosensor (BIAcore). For the immobilisation to BIAcore CM 5 sensorchips (BIAcore), wild-type or mutant Bim proteins were buffer exchanged into 20 mM Na-acetate, pH 4.5. N-hydroxysuccinimide coupling and binding analysis was done as described previously (Lackmann et al., 1997). In order to minimise mass-transport mediated effects the kinetic experiments were routinely carried out at 20 μl/min. Bcl-w binding at concentrations between 2 and 0.03 μM in running buffer (10 mM HEPES, pH 7.4, 150 mM NaCl, 3.4 mM EDTA, 0.005% Tween 20) was performed on sensorchip surfaces derivatised on parallel channels with a non-relevant protein, BimLΔC27 and BimLΔC27-L94A. The binding kinetics were derived from the sensorgrams following subtraction of baseline responses (measured on the control channel) by ‘global analysis’ using the BIA Evaluation software (vers. 3.02, BIAcore).

BimLΔC27-L94A [2] = molecular target: T2, BimLΔC27-L94A; experiment: SPR (BIAcore 2000), BimLΔC27-L94A immobilised, Bcl-w in solution; full-length Bcl-w
Procedure: as §1, §2

BimLΔC27 [3] = molecular target: T3, BimLΔC27 (mouse, UniProt O54918-2 1-113); experiment: SPR (BIAcore 2000), BimLΔC27 immobilised, Bcl-w in solution, global 1:1 Langmuir fit
T3 construct: Truncation by 27 C-terminal residues is stated, the end residue is not; Numbering (L94) is that of the BimL isoform, not of the canonical BimEL entry; Immobilised on the CM5 chip in SPR; soluble protein in GST pull-downs; also called C-terminally truncated BimL; wt BimLΔC27
T3 sequence: T2 sequence with A99L
Procedure: as §1, §2

BimLΔC27 [4] = molecular target: T3, BimLΔC27; experiment: SPR (BIAcore 2000), global fit to a 1:1 Langmuir model. Sheet heads Bcl-w 'Immobilized' and Bim 'Analyte'; text says Bim immobilised, Bcl-w in solution
Procedure: (§3) FIG. 3A is a table showing the binding constants for various Bcl-w-BH3-only ligand complexes, which were determined using Biosensor experiments as described herein. FIG. 3B is a graphical representation showing the interaction kinetics of Bcl-w binding to BimLΔC27. Samples of serially diluted Bcl-w (2 μM-62.5 nM) were analysed on a BimLΔC27 sensor surface as described in Experimental Procedures. […] FIG. 3C is a graphical representation showing the interaction kinetics of Bcl-w or Bcl-wΔC29 binding to BimLΔC27 or BimLΔC27-L94A. […] Relative responses of samples between 1 μM and 62.5 nM are shown. FIG. 3D is a photographic representation of a GST pull-down assay to assess the binding capacity of Bcl-w proteins. Approximately equivalent amounts of the indicated GST-Bcl-w proteins were mixed with either soluble wt BimLΔC27 or soluble BimLΔC27-L94A. The intensity of the Bim band indicated the amount of protein that bound to Bcl-w. Molecular weight standards in kDa are indicated.
as §2, with “3.02, BIAcore). The surface of the chip was regenerated with 50 mM 1,2-diethylamine containing 0.1% Triton X100, followed by two washes with running buffer.” for “3.02, BIAcore).”

BimLΔC27-L94A [5] = molecular target: T2, BimLΔC27-L94A; experiment: as above
Procedure: as §3
as §2, with “3.02, BIAcore). The surface of the chip was regenerated with 50 mM 1,2-diethylamine containing 0.1% Triton X100, followed by two washes with running buffer.” for “3.02, BIAcore).”

BimLΔC27 [6] = molecular target: T3, BimLΔC27; experiment: SPR (BIAcore 2000), BimLΔC27 immobilised
Procedure: as §1, §2

BimLΔC27-L94A [7] = molecular target: T2, BimLΔC27-L94A; experiment: SPR (BIAcore 2000), BimLΔC27-L94A immobilised; Bcl-w truncated by 29 residues (Bcl-wΔC29)
Procedure: as §1, §2

[8] = molecular target: T4, FLAG Bcl-xL (full-length) (UniProt Q07817 1-233); experiment: co-immunoprecipitation from 35S-labelled 293T lysates with anti-FLAG (α-F), anti-EE (α-E) and control anti-HA (α-H) [upper right gel]
T4 construct: also called FLAG-tagged full-length Bcl-xL; not shown: FLAG tag
Description: FIG. 4 comprises photographic representations showing that the in vivo and in vitro binding properties of Bcl-xL resemble that of Bcl-w. FIG. 4A is a photographic representation showing that the C-terminus of Bcl-w restricts access to the binding groove in vivo. Equivalent ³⁵S-labeled 293T lysates obtained from cells co-expressing FLAG Bcl-w or Bcl-wΔC29, and EE-BimEL or BimEL-L150A, were immunoprecipitated using the anti-FLAG M2 (α-F), anti-EE (α-E) or control anti-HA (α-H) monoclonal antibodies. The immunoprecipitations were fractionated on SDS-PAGE gels. FIG. 4B is a photographic representation showing that the C-terminus of Bcl-xL restricts access to the binding groove in vivo. Co-precipitation experiments similar to those described in FIG. 4A using lysates from cells co-expressing FLAG Bcl-xL or Bcl-xLΔC24, and EE-BimL or BimL-L94A. […]
Cell culture, stable transfections into FDC-P1, transient transfections into 293T human embryonic kidney cells, metabolic labelling with ³⁵S-methionine/cysteine (NEN) and co-immunoprecipitation have been previously described (O'Connor et al., 1998, Moriishi et al., 1999; Huang et al., 1998; Wilson-Annan et al., 2003). […] The immunoprecipitates were resolved by SDS-PAGE (Novex), transferred onto nitrocellulose membranes (APB) and the proteins detected by fluorography (Amplify; APB).

Bim = molecular target: T5, Bim (UniProt O54918-2 1-140, limits assumed); experiment: not described
T5 construct: also called BH3-only protein Bim
T5 sequence (looked up): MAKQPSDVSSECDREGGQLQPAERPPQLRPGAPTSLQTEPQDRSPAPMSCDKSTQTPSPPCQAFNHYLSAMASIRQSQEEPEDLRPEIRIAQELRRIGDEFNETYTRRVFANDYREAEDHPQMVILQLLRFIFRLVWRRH

T4 sequence (Q07817 whole entry): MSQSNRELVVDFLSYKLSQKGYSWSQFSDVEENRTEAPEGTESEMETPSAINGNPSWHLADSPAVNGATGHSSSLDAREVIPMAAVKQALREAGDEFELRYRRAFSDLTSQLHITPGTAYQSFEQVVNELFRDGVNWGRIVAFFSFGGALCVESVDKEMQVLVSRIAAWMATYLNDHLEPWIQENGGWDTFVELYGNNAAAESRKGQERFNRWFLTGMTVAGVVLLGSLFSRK

B1: Bcl-wΔC10 (A128E), purified, NMR sample (other)
chain: GPLGSMATPASAPDTRALVADFVGYKLRQKGYVCGAGPGEGPAADPLHQAMRAAGDEFETRFRRTFSDLAAQLHVTPGSAQQRFTQVSDELFQGGPNWGRLVAFFVFGAALCAESVNKEMEPLVGQVQEWMVEYLETRLADWIHSSGGWAEFTALYGDGALEEARRLREGNWASVRTVLTGAVALGAL
notes: Isotope-labelled (15N) protein for the NOESY-HSQC with the Bim-BH3 peptide
Bim-BH3 peptide
  binding result: binds

B2: Bcl-w (full-length, purified recombinant protein) (other)
chain: GPLGSMATPASAPDTRALVADFVGYKLRQKGYVCGAGPGEGPAADPLHQAMRAAGDEFETRFRRTFSDLAAQLHVTPGSAQQRFTQVSDELFQGGPNWGRLVAFFVFGAALCAESVNKEMEPLVGQVQEWMVAYLETRLADWIHSSGGWAEFTALYGDGALEEARRLREGNWASVRTVLTGAVALGALVTVGAFFASK
notes: Expressed as GST fusion in E. coli, released with PreScission protease; analyte in solution in the BIAcore experiments; also called full length Bcl-w; wild-type Bcl-w
BimLΔC27-L94A [1]
  fold decrease in the association rate against BimLΔC27: 10 fold
  fold increase in the dissociation rate against BimLΔC27: 5 fold
  fold reduction of affinity against BimLΔC27: > 60 fold
BimLΔC27-L94A [2]
  Kd: 1600 nM
BimLΔC27 [3]
  Kd: 24 nM
BimLΔC27 [4]
  koff: 0.0043 s⁻¹
  kon: 180000 M⁻¹ s⁻¹
BimLΔC27-L94A [5]
  koff: 0.02 s⁻¹
  kon: 13000 M⁻¹ s⁻¹

B3: Bcl-wΔC29 (purified recombinant protein) (other)
chain: GPLGSMATPASAPDTRALVADFVGYKLRQKGYVCGAGPGEGPAADPLHQAMRAAGDEFETRFRRTFSDLAAQLHVTPGSAQQRFTQVSDELFQGGPNWGRLVAFFVFGAALCAESVNKEMEPLVGQVQEWMVAYLETRLADWIHSSGGWAEFTALYGDGALEEARRLRE
notes: Residue limits 1-164 follow from 193 aa minus 29; also called Bcl-w truncated by 29 residues at the C-terminus
BimLΔC27 [6]
  Kd: 11 nM
  fold increase in the association rate against full-length Bcl-w: 3 fold
BimLΔC27-L94A [7]
  Kd: 13 nM
BimLΔC27 [4]
  koff: 0.0061 s⁻¹
  kon: 570000 M⁻¹ s⁻¹
BimLΔC27-L94A [5]
  koff: 0.0028 s⁻¹
  kon: 210000 M⁻¹ s⁻¹

B4: EE-BimL-L94A (ligand, UniProt O54918-2 1-140, looked up)
chain: T5 sequence (looked up) with L94A
notes: also called L94A mutant; not shown: EE (Glu-Glu) tag
[8]
  binding result: no binding

B5: Bcl-w with Arg95 mutated to Ala (other)
chain: MATPASAPDTRALVADFVGYKLRQKGYVCGAGPGEGPAADPLHQAMRAAGDEFETRFRRTFSDLAAQLHVTPGSAQQRFTQVSDELFQGGPNWGALVAFFVFGAALCAESVNKEMEPLVGQVQEWMVAYLETRLADWIHSSGGWAEFTALYGDGALEEARRLREGNWASVRTVLTGAVALGALVTVGAFFASK
notes: Construct and assay not described; also called Bcl-w R95A
Bim
  binding result: no binding
